Our source for the induced proliferation, relative to TS8.2 values is patent US20160175358A1.

The assay addresses δ1 TCR on δ1 T-cells in PBMCs (human) (UniProt O00548). Kind of assay: cell-based or functional assay.
Sequence of UniProt O00548 (O00548 18-723, stated change not applied): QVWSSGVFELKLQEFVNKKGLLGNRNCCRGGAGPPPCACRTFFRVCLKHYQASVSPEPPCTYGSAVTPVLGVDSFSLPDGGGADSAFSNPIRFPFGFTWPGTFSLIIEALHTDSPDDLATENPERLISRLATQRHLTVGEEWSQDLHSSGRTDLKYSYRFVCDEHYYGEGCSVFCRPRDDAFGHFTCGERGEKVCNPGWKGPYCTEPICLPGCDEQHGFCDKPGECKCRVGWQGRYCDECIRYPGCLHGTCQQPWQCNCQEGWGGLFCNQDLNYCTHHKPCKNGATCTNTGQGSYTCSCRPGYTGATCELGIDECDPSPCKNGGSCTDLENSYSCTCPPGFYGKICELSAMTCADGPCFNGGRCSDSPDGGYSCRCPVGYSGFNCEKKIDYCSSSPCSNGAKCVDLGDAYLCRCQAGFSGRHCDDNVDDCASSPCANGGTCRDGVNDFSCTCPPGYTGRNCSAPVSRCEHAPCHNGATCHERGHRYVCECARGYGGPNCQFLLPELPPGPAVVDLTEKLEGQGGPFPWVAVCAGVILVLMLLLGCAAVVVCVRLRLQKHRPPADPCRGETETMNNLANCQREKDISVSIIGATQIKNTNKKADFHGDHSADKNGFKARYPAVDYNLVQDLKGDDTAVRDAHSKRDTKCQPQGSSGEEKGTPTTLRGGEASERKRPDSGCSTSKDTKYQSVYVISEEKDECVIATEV

On to anti-TCR Vδ1 TS-1 antibody, for which the induced proliferation, relative to TS8.2 is 3 fold.
